In doi:10.1101/2022.12.23.521429v4:

System: Nc1ncnc2c1ncn2[C@@H]1O[C@H](COP(=O)(O)OP(=O)(O)OP(=O)(O)O)[C@@H](O)[C@H]1O
Assay: kinase activity assay
Assay type: biochemical, Homo sapiens
Settings: co-substrate and buffer of the KM determination not told

In the case of “DYRK1B kinase domain (78-442) (Homo sapiens)”, the Km was 105 µM.
